Consider one protein from PMC4687705, “Plasma levels of OLFM4 in normals and patients with gastrointestinal cancer” (Journal of Cellular and Molecular Medicine, 2015).

This data set deals with the molecule itself. As to the kind of experiment: western blot after SDS-PAGE under reducing and non-reducing conditions; isolated specific granules of human neutrophils, blotted with anti-OLFM4 clone #49; 12% polyacrylamide gels.

B1: Olfactomedin 4 (OLFM4) (natural protein)
chain: not shown
modifications: highly glycosylated (sites not given); intermolecular disulphide bonds (cysteines not given)
notes: Olfactomedin 4, human, native protein from specific granules of neutrophils; 72 kD under reducing conditions; Multimer of unstated size; also called hGC-1; GW112
Consider B1, for which the binding result was “binds”.
